# Results as given in the RNAGym collection of RNA variant scans (doi:10.1073/pnas.2313332121).
# B1: TPR t1 (parent)
# chain: GACCAAUCUGCCCUCAGAGCUCGAGAACAUCUUCGGAUGCAGAGGAGGCAGGCUUCGGUGGCGCGAUAGCGCCAACGUCCUCAACCUCCAAUGCAUCCCACCACAUGAUGAUGCCUGAAGAGCCUUGGUUUUUUG
# Variants of: B1
# Test: polymerase ribozyme fitness, log enrichment relative to wild type (log ratio); higher = more active; in vitro selection for triplet polymerase activity
# Method in brief: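 Streptavidin-bead capture of gel-excised extended constructs, followed by RT-PCR, closed a single triplicate in vitro selection round. That round began by annealing PCR-built, transcribed mutant libraries of each subunit of a heterodimeric triplet polymerase ribozyme with a biotinylated primer, the partner subunit and triplets, then incubating them frozen at −7 °C. After Illumina sequencing of inputs and outputs, genotypes needed ≥10 input reads and ≥1 read per output. Fitness is the base-2 logarithm of genotype enrichment over wild-type enrichment, using inverse-variance-weighted replicate averages.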
row,Variant,polymerase ribozyme fitness (log ratio)
1,G48A G117C,-3.17
2,C49G G77U,-1.25
3,G48U U59A U78G U116A,-3.29
4,G48A G63A U116C G122A,-5.7
5,G48C C49A U78G U81G,-1.87
6,C49A C101G,-2.23
7,G48A U54G G110C,-4.76
8,G48U C72U C85A U92C G93C C101U,-3.44
9,G48U A111C,-0.214
10,C49U C64U,-0.897
11,C49G C72U,-0.921
12,G47U U55C C56A C73G,-4.04
13,G47U G71A U112C,-0.298
14,G48C G61U,0.754
15,G48U C70U C114A,-2.21
16,G48U A50U G60A C86G,-2.89
17,G48A U112C U133G,0.699
18,G48C C79U G128C,-4.29
19,G48U C56G C72A C94A G110C,-5.78
20,C49U A90G C124A,1.48
21,C49A C73U G120U,-0.216
22,G48U G58A G122A,-1.21
23,G47C G61A U87A U92A,-5.03
24,C49U C82A U87C U96A,-1.66

row,Variant,polymerase ribozyme fitness (log ratio)
1,G48A G52A,-0.371
2,C49G A90C,-3.22
3,G47A G120C U130C,0.162
4,G47C G61U,-2.07
5,G47U C56U G113U,-4.43
6,G47U G135A,-2.09
7,G48U G63U C86U,-1.38
8,G48U C56A U92A,-4.35
9,C49G C85G U116G,-3.63
10,G48C C56G G110U,-1.56
11,G48C G71C C123G,-0.00854
12,C49U C72G C89U,-1.07
13,G48C C62U C64U C97U A100U C123A,-2.01
14,G47C C64U A90C C104U,-2.77
15,C49A C123U,1.14
16,G47C C79A,-5.18
17,C49A G77A U106C C114A,-2.9
18,G48C C64U,-1.12
19,G48A C62U C115U,-3.7
20,C49G G57U C82G U96G,-2.49
21,C49G C70A,-2.2
22,C49G C70G,-4.79
23,G48C C82A A84C,-1.03
24,G48U C72G G122A,-2.3

row,Variant,polymerase ribozyme fitness (log ratio)
1,G48C G51C G57U,-2.77
2,G48U U59C C86G,-2.19
3,G48U C76G G110A G127A,-2.63
4,G47C C72G G113A U126A,-5.16
5,C49A A74C C94U U116A,-3.09
6,G48A C80A,-2.53
7,G48C C101U U112C,0.0907
8,G47U U87G U129A,-4.44
9,G48C G60U C86A C94U U106C G117C,-6.53
10,C49A A105C,-2.48
11,G48U U78C,-1.27
12,C49A U81C U129G,-3.78
13,C49U G51U G71A C86U,-7.37
14,G47C U54G G58C G69U C123G,0.703
15,G48U C72U,-1.19
16,G48A G69U C123U,0.885
17,G47A G120C,0.156
18,C49G C115U,-1.48
19,C49G C115A,-1.51
20,C49G C115G,-2.98
21,G47C G52U A74G U96A,-4.89
22,G47U G57A U106G U132A,-4.76
23,G47U C94U U106G G117U G120A,-5.71
24,G48C G128C,-2.75

row,Variant,polymerase ribozyme fitness (log ratio)
1,G48U G57U A75G A83C G117A,-4.82
2,C49G G51U,-3.2
3,G48A C85A,-0.739
4,G48U C64A C86G A111G G135A,-6.11
5,G47C G48U C62U C85U A108U A111U G120C G122C,-6.85
6,C49A C73A C89U A105U,-3.83
7,C49U A68G A84C U131A,-4.91
8,C49G G60C,-1.97
9,G48A C76U C85G C89A U96C,-5.66
10,G48A C101U,-2.29
11,G48C C73U,-0.559
12,C49A U55C,-1.24
13,C49U C72U C94G,-1.72
14,G48C A74U,-0.843
15,C49U C62G G71A,-1.5
16,C49A C88G G120C,0.68
17,G48A C72U U81C C102A A121C,-0.882
18,G48U G57A G58A,-0.738
19,G47U C115U,-2.5
20,G47A U54C U59A C94G A118C U130C,-5.44
21,G47U C104U,-1.55
22,C49A G71A G77C,-1.63
23,G48A C62U,-0.525
24,C49G G51C A119U U133C,-3.18

row,Variant,polymerase ribozyme fitness (log ratio)
1,G47U C53G C56G,-2.42
2,C49G C70U U129A,-2.63
3,G47U G52A A83C,-2.36
4,G48U C56A C114G G127C,-5.92
5,G48C C49G,-0.655
6,G48C C49A,-2.13
7,G48U G57A,-1.01
8,G48C A83C A90C G110A,-3.46
9,C49U C62U C114G G117C U125C U129C,-7.74
10,G48U C49A C115U U133C,-2.27
11,C49U A50U A95G U96A A111G,-7.1
12,G48U A90G U112A,-2.03
13,G48A G93A U96C C99U,-4.9
14,G47U C62U U78C G117C,-5.23
15,G48A G128U,-2.69
16,G48A C70A,-2.36
17,C49G G60A A75U G93U,-3.65
18,G47U C70U,-1.87
19,G48A U130G,-1.37
20,G48A U130C,-0.486
21,G47U C56U,-1.38
22,G47U C56G,-3.09
23,C49A C79U C114U G120U,-4.69
24,G48A C82U,-0.23

row,Variant,polymerase ribozyme fitness (log ratio)
1,G48A G61C,-1.66
2,C49A G77A C82A U92C G113U C114U,-2.49
3,G47C C101A,-2.59
4,C49U A119U C123U,0.0952
5,G48U A105C,-2.86
6,G48U A105U,-2.27
7,G48U G57C U130C,0.0456
8,G47A G69U G77C C99U C114G,-3.2
9,G48C G57A,-0.626
10,G47A U55A G60C A90U U92A,-4
11,G48U G110C,-4.65
12,C49G U96A U112A,-0.269
13,G47A U55A G60U A90U U92A,-2.67
14,C49U C124G,0.761
15,G48A U106A,-0.42
16,G47U C94G,-3.51
17,G47U G58U G120U,-1.02
18,G48U U112A,0.632
19,G47C C62U C88U,-1.75
20,G47U C89U G122A,-4.51
21,G47U C56G A118U G122A,-2.71
22,C49A C70U C80A U116C,-7.47
23,C49A G71A C98G A100C,-7.02
24,G47C C56U U106A C123A,-1.35

row,Variant,polymerase ribozyme fitness (log ratio)
1,G48U U55C,-1.53
2,G48C G69U U130C,-0.222
3,G47A U92C,-2.73
4,C49G G120U,0.305
5,C49A G113C G120U,-4.69
6,C49U A74C,-0.435
7,G48A G61U C64U A84U,-3.63
8,C49G C56G,-2.98
9,C49G C56U,-0.51
10,C49A C94A A103C,-5.92
11,G47A U78G U81A C86U U133G,-1.35
12,C49A C72G C89G G113U,-5.04
13,G48U C56G C101U C114G,-4.75
14,G47U G57A C73A C85G U106A U133A,-5.19
15,G47U C101U C114U A118U,-5.66
16,G48A A100U,-1.19
17,G48U U54G,-0.42
18,C49A C115G,-1.85
19,C49G C62G,-3.46
20,C49U C62A U96C,-1.91
21,G48U C53A C62U C82U U106A A108G,-1.03
22,G48U G60U G61A A83G U129G,-3.05
23,G47U G71U A119U C123A,-2.79
